Test [1] addresses T1, human CD25 expressed on cells (Karpas 299, SU-DHL-1, SR-786, in vitro differentiated Treg cells, PBMC) (human, UniProt P01589 22-272).
T1 construct: also called CD25 expressing cells
T1 sequence: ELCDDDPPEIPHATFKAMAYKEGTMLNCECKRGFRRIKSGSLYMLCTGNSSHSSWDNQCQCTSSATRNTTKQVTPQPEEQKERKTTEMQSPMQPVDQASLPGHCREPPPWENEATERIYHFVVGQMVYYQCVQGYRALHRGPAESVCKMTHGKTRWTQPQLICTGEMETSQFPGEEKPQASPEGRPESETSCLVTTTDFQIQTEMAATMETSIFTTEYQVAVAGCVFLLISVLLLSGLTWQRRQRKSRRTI
The experiment in a line: flow cytometry titration on Karpas 299 cells, AF647 secondary antibody.

The target of test [2] is T1, human CD25 expressed on cells (Karpas …). Described as above. This is another data set of the same source.
The target is the same in test [3]. The test is described as above. This is another data set of the same source.
For test [4] the target is unchanged. The test is described as above. The source holds these as a separate data set.
Test [5] has the same target. The description is as above. The source holds these as a separate data set.
The target is the same in test [6]. The description is as above. The source holds these as a separate data set.
The target of another test is T2, recombinant mouse CD25 (mouse, UniProt P01590 22-236, biotinylated in FIG. 1A (site not stated)).
T2 construct: also called biotinylated mouse CD25
T2 sequence (looked up): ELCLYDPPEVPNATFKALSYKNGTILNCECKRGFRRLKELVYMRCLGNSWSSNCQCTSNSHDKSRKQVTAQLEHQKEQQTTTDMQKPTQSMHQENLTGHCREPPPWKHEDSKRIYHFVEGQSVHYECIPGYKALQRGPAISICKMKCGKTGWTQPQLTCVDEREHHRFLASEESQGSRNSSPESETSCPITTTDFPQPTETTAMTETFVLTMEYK
Nature of the test: BLI Octet RED384, IgG on AHQ sensors, 100 nM antigen, 1:1 model. In general terms: BLI is a label-free optical method that tracks binding on a fibre tip over time.

Test [7] addresses T3, mouse CD25 expressed on cells (CHO cells expressing mouse CD25; mouse T cells) (mouse, UniProt P01590 22-268).
T3 construct: whole, on cells; also called CHO-mCD25; cellular expressed mCD25
T3 sequence (looked up): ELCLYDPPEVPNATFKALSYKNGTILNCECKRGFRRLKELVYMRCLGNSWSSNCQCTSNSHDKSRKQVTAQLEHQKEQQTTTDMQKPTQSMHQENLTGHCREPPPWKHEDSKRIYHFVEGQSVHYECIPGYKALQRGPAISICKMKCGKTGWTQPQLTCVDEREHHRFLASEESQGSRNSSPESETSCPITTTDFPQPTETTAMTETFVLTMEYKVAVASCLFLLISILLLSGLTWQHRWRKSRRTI
The experiment in a line: flow cytometry on CHO cells expressing mouse CD25, MFI AF647. (In flow cytometry, cells or beads pass a laser one at a time.)

Test [8] has as its target T4, recombinant mouse CD25 his tagged (mouse, UniProt P01590 22-236, limits assumed).
T4 construct: also called rmCD25 his tagged; mCD25; not shown: his tag
T4 sequence (looked up): T2 sequence (looked up)
Nature of the test: SPR Biacore 2000, antibody captured by anti-mouse antibody on CM-5 chip, recombinant mouse CD25 his tagged as analyte, bivalent analyte model. In general terms: In SPR one partner is held on a chip, and binding of the other changes the refractive index at the surface.

The target in test [9] is T1, human CD25 expressed on cells (Karpas …). Nature of the test: flow cytometry on Karpas 299 cells, MFI AF647.
For test [10] the target is unchanged. The experiment in a line: flow cytometry on SR-786 cells, Geo Mean Intensity.
The target is the same in test [11]. The experiment in a line: flow cytometry on SU-DHL-1 cells, Geo Mean Intensity.
The target in test [12] is T5, recombinant human CD25 his tagged (human, UniProt P01589 22-213, limits assumed).
T5 construct: also called rhCD25 his tagged; rhCD25; not shown: his tag
T5 sequence: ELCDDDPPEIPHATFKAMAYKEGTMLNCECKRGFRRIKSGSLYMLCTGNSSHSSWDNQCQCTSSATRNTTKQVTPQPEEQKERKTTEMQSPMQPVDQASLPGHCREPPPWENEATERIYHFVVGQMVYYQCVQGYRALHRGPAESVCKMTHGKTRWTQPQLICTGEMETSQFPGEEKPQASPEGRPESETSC
The experiment in a line: SPR, Biacore 2000: antibody captured on an anti-human antibody CM-5 chip, rhCD25 his tagged as analyte, 1:1 Langmuir fit.

The target in test [13] is T5, recombinant human CD25 his tagged. The description is as above. This is another data set of the same source.
For test [14], the target named is T1, human CD25 expressed on cells (Karpas …). Nature of the test: flow cytometry on human in vitro differentiated Treg cells, MFI AF647.
Test [15] shares this target. Nature of the test: flow cytometry on Karpas 299 cells, MFI AF647. This is another data set of the same source.
The target in test [16] is T5, recombinant human CD25 his tagged. Nature of the test: biolayer interferometry, Octet Red 96: antibody on AHC biosensor, rhCD25 his tagged 50 nM to 0.54 nM, global 1:1 fit [F].

The text below walks through data of patent US20200010554A1 (TUSK THERAPEUTICS, published 2020).

One may read the EC50 (read off the curve) as the concentration at which the effect is half-maximal.

Where a chain is given by its changes, count along the chain named. Read-outs that look alike come from different tables or passages of the source.

B1: Antibody 10 (antibody, V domains shown)
VH: QVQLQESGPGLVKPSETLSLTCTVSGFSLTSYGIQWIRQPPGKGLEWIGVIWAGGSTNYNSALMSRVTISKDNSKNQFSLKLSSVTAADTAVYYCARAYGYDGSWLAYWGQGTLVTVSS
VL: EIVLTQSPATLSLSPGERATLSCRASSSVSYMHWYQQKPGQAPRPLIFATSNLASGIPARFSGSGSGTDFTLTISSLEPEDFAVYYCQQWSSNPPTFGGGTKLEIK
notes: also called Ab10
With B1, the 50% effective concentration (EC50 (read off the curve)) in test [1] is approximately 0.3 µg/mL.

B2: Antibody 6 (antibody, V domains shown)
VH: EVQLLESGGGLVQPGGSLRLSCAASGFTFSSYGMSWVRQAPGKGLELVSTINGYGDTTYYPDSVKGRFTISRDNSKNTLYLQMNSLRAEDTAVYYCARDRDYGNSYYYALDYWGQGTLVTVSS
VL: B1 VL with A9G, Y31F, Y35L, F48Y, A59D, F70Y, S76R, T96A, G99Q
notes: compared with a human IgG1 isotype control
In the case of B2, the binding result in [2] was “binds”.

B3: Antibody 7 (antibody, V domains shown)
VH: B2 VH
VL: QIVLTQSPGTLSLSPGERATLSCRASSSVSFMHWLQQKPGQSPRPLIYATSNLASGIPDRFSGSGSGTDYTLTISRLEPEDFAVYYCQQWSSNPPAFGQGTKLEIK
notes: as for B2
Regarding B3, the binding result in test [3] is given as “binds”.

B4: Antibody 8 (antibody, V domains shown)
VH: B2 VH with S75A, Y95F
VL: B3 VL with Q1E, S42A
notes: as for B2
Turning to B4, the binding result in [4] is reported as “binds”.

B5: Antibody 11 (antibody, V domains shown)
VH: B1 VH
VL: B1 VL with E1Q, F70Y
notes: also called Ab11
For B5, in test [5], the “EC50 (read off the curve)” value is approximately 0.3 µg/mL.

B6: Antibody 9 (antibody, V domains shown)
VH: B2 VH with S75A, Y95F
VL: B3 VL
notes: as for B2
Consider B6, for which, in test [6], the binding result is listed as “binds”.

B7: PC61(mIgG2a), recombinant anti-mouse CD25 antibody from clone PC-61.5.3 with murine IgG2a and kappa constant regions (antibody, V domains shown)
VH: EVQLQQSGAELVRPGTSVKLSCKVSGDTITAYYIHFVKQRPGQGLEWIGRIDPEDDSTEYAEKFKNKATITANTSSNTAHLKYSRLTSEDTATYFCTTDNMGATEFVYWGQGTLVTVSS
VL: QVVLTQPKSVSASLESTVKLSCKLNSGNIGSYYMHWYQQREGRSPTNLIYRDDKRPDGAPDRFSGSIDISSNSAFLTINNVQTEDEAMYFCHSYDGRMYIFGGGTKLTV
notes: also called PC61m2a; aPC61 mIgG2a
Consider B7, for which the Kd with recombinant mouse CD25 amounted to 4.6 nM; in test [8], 3.6 nM. Further, the “EC50 (read off the curve)” value in test [7] was approximately 0.2 µg/mL.

B8: chimeric 7G7B6 (antibody, V domains shown)
VH: EVQLVESGGDLVQPRGSLKLSCAASGFTFSSYGMSWVRQTPDKRLELVATINGYGDTTYYPDSVKGRFTISRDNAKNTLYLQMSSLKSEDTAMYFCARDRDYGNSYYYALDYWGQGTSVTVSS
VL: QIVLSQSPAILSASPGERVTMTCRASSSVSFMHWLQQKPGSSPKPWIYATSNLASGVSARFSGSGSGTSYSLTITRVEAEDAATYYCQQWSSNPPAFGGGTKLEIK
notes: also called 7G7B6 chimeric antibody; 7g7B6ch
B8: the entries for the “EC50 (read off the curve)” value in [9], in test [10] and in test [11] were approximately 1 µg/mL, approximately 0.9 µg/mL and approximately 0.8 µg/mL, respectively. Further, in test [12], the Kd came to 6.7 nM.

B9: MA251ch (antibody, V domains shown)
VH: QVQLKESGPGLVAPSQSLSITCTVSGFSLTSYGIQWVRQPPGKGLEWLGVIWAGGSTNYNSALMSRLSISKDNSKSQVFLKMNSLQTDDTAMYYCARAYGYDGSWLAYWGQGTLVTVSS
VL: B8 VL with R18K, F31Y, L35Y, Y48F, S58P, T75N, A83D, A96T
As for B9, the Kd in test [13] was 6.6 nM.

B10: 7G7B6, mouse IgG2a anti-human CD25 antibody (antibody, V domains shown)
VH: B8 VH
VL: B8 VL
notes: also called 7G76B; mouse anti-human CD25 clone 7G7B6
Consider B10, for which the “EC50 (read off the curve)” value in test [14] is approximately 1 µg/mL.

B11: MA251, mouse anti-human CD25 antibody (antibody, V domains shown)
VH: B9 VH
VL: B8 VL with R18K, F31Y, L35Y, Y48F, S58P, T75N, A83D, A96T
notes: Mouse isotype (compared with a mouse IgG1 isotype control)
In the case of B11, the “EC50 (read off the curve)” value in [15] is approximately 0.1 µg/mL.

B12: Antibody 5 (antibody, V domains shown)
VH: EVQLVESGGGLIQPGGSLRLSCAASGFTLDSYGVSWVRQAPGKGLEWVGVTSSGGSAYYADSVKGRFTISRDNSKNTLYLQMNSLRAEDTAVYYCARDRYVYTGGYLYHYGMDLWGQGTLVTVSS
VL: DIQMTQSPSSLSASVGDRVTITCRASQSISDYLAWYQQKPGKVPKLLIYAASTLPFGVPSRFSGSGSGTDFTLTISSLQPEDVATYYCQGTYDSSDWYWAFGGGTKVEI
notes: as for B2
Take B12: the Kd in test [16] is 0.8 nM.
